Data set [1] is classed as physicochemical. The conditions noted are these: pH 7.4. On the procedure: Synthesis of [18F]AlF-NOTA-QHY-04
Briefly, NOTA-QHY-04 was radiolabeled with [18F]F-, following procedures. 10-20
GBq [18F]F− produced by medical cyclotron (MINITRACE Cyclotron, GE, USA) was
captured with a QMA SepPak light cartridge (Waters Corporation, USA) and then eluted
with 300-500 μL saline (0.9% NaCl). Then, the saline containing [18F]F− was added to
reaction vial, followed by 6-12 μL AlCl3 (10 mM in 0.1M sodium acetate buffer, pH 4),
200 μL acetonitrile (≥ 99.9%, Sigma-Aldrich, USA), and 20-30 μL of NOTA-QHY-04
(20 mg/mL in metal-free water). The vial was heated for 10 min at 110°C. After cooling,
the reaction system was diluted with 10 mL of water and was transferred to a Qasis light
HLB cartridge (Waters Corporation, USA). The cartridge was then washed with 10 mL of
water to remove the free [18F]F−. Finally, the desired product was eluted and collected
with 0.6 mL of ethanol. The product was reconstituted in saline and passed through a 0.22
μm syringe filter (Pall Corporation, USA) into a sterile vial.
Octanol-water partition coefficient (logD)
The partition coefficient (logD) of [18F]AlF-NOTA-QHY-04 was determined in a […]
from each phase were measured for radioactivity using a γ-counter. […]
repeated three times to ensure the accuracy of the results. The logD was calculated by
dividing the average radioactivity in the 1 -octanol layer by that in the PBS layer, and the […]

Data set [2] concerns the target T1, CXCR4 expression (Homo sapiens, UniProt P61073).
T1 construct: from tissue; host or cells: tumour lesions in cancer patients (DLBCL, SCLC, NSCLC, TNBC, pancreatic carcinoma, glioma, HCC, CRC), in vivo
As to conditions: in vivo. The source says: Potential eligible patients with newly diagnosed tumor were recruited from Shandong Cancer Hospital and institute from November 2022 to December 2023. A total of 55 patients including 8 tumor types were represented in this study (diffuse large B-cell lymphoma (DLBCL), n = 6; SCLC, n = 30; non-small cell lung cancer (NSCLC), n = 4; triple-negative breast cancer (TNBC), n = 3; pancreatic carcinoma, n = 3; glioma, n = 7; hepatocellular carcinoma (HCC), n = 1; and colorectal carcinoma (CRC), n = 1). The [^18F]AlF-NOTA-QHY-04 imaging study in patients was approved by the Institutional Review Board of Shandong Cancer Hospital and Institute (no. SDZLEC2023-256-02), and the patients provided their informed consent before inclusion in this study. In this prospective observational study, [^18F]AlF-NOTA-QHY-04 PET/CT scans should not affect the normal process of routine examinations and treatment as usual. Patients were enrolled according to the following criteria: (1) newly diagnosed cancer patients with visible tumors on conventional imaging; (2) histopathologically confirmed diagnosis; (3) age ≥ 18 years; (4) Eastern Cooperative Oncology Group (ECOG) performance status score of 0-2; (5) no prior cancer-directed therapy; (6) ability to undergo [^18F]AlF-NOTA-QHY-04 PET/CT scanning before treatment initiation. Specifically, regarding histological confirmation, we followed the standard clinical practice guidelines for each type of cancer [21]-[26], and provided detailed descriptions of our approach for obtaining histological evidence in the supplemental materials. […]
NaOH. Finally, the cell lysates were collected and measured by an automatic gamma counter (2470 Wizard2, PerkinElmer). […]
The tumor-bearing mice were injected with 3.70 ± 0.74 MBq of [18F]AlF-NOTA-QHY-04 in about 150 μL saline via the tail vein. […] The PET/CT images were analyzed using OsiriX MD software (Pixmeo SARL, Geneva, Switzerland), and the regions of interest (ROIs) were drawn along the boundary covering the whole tumor volume for quantification of the radioactivity (expressed as %ID/mL). […]

Bridge positions count the residues as written; N and C are the ends. Square brackets hold non-standard residues; d marks the D form. Peptide text beside a SMILES is read from it. * marks the point of attachment. NOTA = O=C(O)CN1CCN(CC(=O)O)CCN(CC(=O)*)CC1; 2Nal = N[C@@H](Cc1ccc2ccccc2c1)C(=O)O; Pen = CC(C)(S)[C@H](N)C(=O)O; 4Amb = NCc1ccc(C(=O)O)cc1; Ahx = NCCCCCC(=O)O

T1 sequence (P61073 whole entry): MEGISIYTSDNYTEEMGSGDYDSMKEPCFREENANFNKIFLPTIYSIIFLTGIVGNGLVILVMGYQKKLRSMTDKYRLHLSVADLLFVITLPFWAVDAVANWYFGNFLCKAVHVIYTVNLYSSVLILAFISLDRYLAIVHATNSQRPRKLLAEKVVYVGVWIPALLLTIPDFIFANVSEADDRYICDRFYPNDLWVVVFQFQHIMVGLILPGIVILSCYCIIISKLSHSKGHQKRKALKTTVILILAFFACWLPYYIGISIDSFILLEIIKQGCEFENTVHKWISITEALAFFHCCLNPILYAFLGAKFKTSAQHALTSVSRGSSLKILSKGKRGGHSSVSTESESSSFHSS

`C[C@H](NC(=O)[C@H](CCCNC(=N)N)NC(=O)CCCCCNC(=O)c1ccc(CNC(=O)CN2CCN(CC(=O)O)CCN(CC(=O)O)CC2)cc1)C(=O)N[C@@H]1CSSC(C)(C)[C@@H](C(=O)O)NC(=O)[C@H](Cc2c[nH]cn2)NC(=O)[C@H](Cc2ccc3ccccc3c2)NC(=O)[C@H](CCCNC(=N)N)NC1=O` [[^18F]AlF-NOTA-QHY-04] ({NOTA-4Amb-Ahx}-RA[dC]R[2Nal]H[Pen]-OH; disulfide 3-7): the logD (in general, the decadic logarithm of the distribution of all forms, ionised or not, between an organic phase and buffer at a given pH) in data set [1] is given as -2.21 ± 0.06. Also, in data set [2], the SUVmean is 7.52 ± 3.01, the “average SUVmax” value is listed as 6.29 ± 2.85 and the “average T/N (tumor-to-normal brain ratio)” value was 62.55 ± 43.24.
